As usually defined, the Kd is the constant that tells how readily two partners part at equilibrium.

Assay [1] addresses T1, F-actin (chicken skeletal muscle actin, polymerized) (chicken, UniProt P68139 1-377). The assay is described as follows: cell-based or functional assay.
Assay [2] concerns the target T1, F-actin (chicken skeletal muscle actin, …). The assay is described as follows: co-sedimentation; high-speed co-sedimentation, 300 000 g, 25 °C, 30 min; plastin 5 µmol·L^-1, F-actin varied 1-50 µmol·L^-1; actin polymerized in 2 mmol·L^-1 MgCl2, 30 mmol·L^-1 KCl, 10 mmol·L^-1 HEPES pH 7.0; incubated overnight at 4 °C then 1 h at 25 °C; SDS-PAGE densitometry, fit to a binding isotherm. The conditions noted are these: both partners purified.

Substitutions are numbered along the chain they refer to. Numbers in names are those of the source.

B1: plastin 3 (PLS3) A253_L254insN (natural protein)
chain: MDEMATTQISKDELDELKEAFAKVDLNSNGFICDYELHELFKEANMPLPGYKVREIIQKLMLDGDRNKDGKISFDEFVYIFQEVKSSDIAKTFRKAINRKEGICALGGTSELSSEGTQHSYSEEEKYAFVNWINKALENDPDCRHVIPMNPNTDDLFKAVGDGIVLCKMINLSVPDTIDERAINKKKLTPFIIQENLNLALNSASAIGCHVVNIGAEDLRAGKPHLVLGLLWQIIKIGLFADIELSRNEALAANLLRDGETLEELMKLSPEELLLRWANFHLENSGWQKINNFSADIKDSKAYFHLLNQIAPKGQKEGEPRIDINMSGFNETDDLKRAESMLQQADKLGCRQFVTPADVVSGNPKLNLAFVANLFNKYPALTKPENQDIDWTLLEGETREERTFRNWMNSLGVNPHVNHLYADLQDALVILQLYERIKVPVDWSKVNKPPYPKLGANMKKLENCNYAVELGKHPAKFSLVGIGGQDLNDGNQTLTLALVWQLMRRYTLNVLEDLGDGQKANDDIIVNWVNRTLSEAGKSTSIQSFKDKTISSSLAVVDLIDAIQPGCINYDLVKSGNLTEDDKHNNAKYAVSMARRIGARVYALPEDLVEVKPKMVMTVFACLMGRGMKRV
notes: plastin 3 (PLS3), human, osteogenesis imperfecta-linked single-residue insertion A253_L254insN in the CH1-CH2 connecting loop of ABD1; Patient mutation; also called Ca2+-hypersensitive mutant; source: E. coli BL21-CodonPlus(DE3), purified (TALON cobalt resin)
On to B1, for which, in assay [1], the “F-actin bundling, low-speed (17 000 g) co-sedimentation, [PLS3]50%, Ca^2+” value (“F-actin bundling, low-speed … [PLS3]50%, Ca^2+” below) came to 2.09 µmol/L and the “F-actin bundling, low-speed (17 000 g) co-sedimentation, [PLS3]50%, EGTA” value (“F-actin bundling, low-speed … [PLS3]50%, EGTA” below) turned out to be 0.53 µmol/L. In assay [2], this molecule showed a Kd of 3.77 µM.

B2: plastin 3 (PLS3), wild type (natural protein)
chain: MDEMATTQISKDELDELKEAFAKVDLNSNGFICDYELHELFKEANMPLPGYKVREIIQKLMLDGDRNKDGKISFDEFVYIFQEVKSSDIAKTFRKAINRKEGICALGGTSELSSEGTQHSYSEEEKYAFVNWINKALENDPDCRHVIPMNPNTDDLFKAVGDGIVLCKMINLSVPDTIDERAINKKKLTPFIIQENLNLALNSASAIGCHVVNIGAEDLRAGKPHLVLGLLWQIIKIGLFADIELSRNEALAALLRDGETLEELMKLSPEELLLRWANFHLENSGWQKINNFSADIKDSKAYFHLLNQIAPKGQKEGEPRIDINMSGFNETDDLKRAESMLQQADKLGCRQFVTPADVVSGNPKLNLAFVANLFNKYPALTKPENQDIDWTLLEGETREERTFRNWMNSLGVNPHVNHLYADLQDALVILQLYERIKVPVDWSKVNKPPYPKLGANMKKLENCNYAVELGKHPAKFSLVGIGGQDLNDGNQTLTLALVWQLMRRYTLNVLEDLGDGQKANDDIIVNWVNRTLSEAGKSTSIQSFKDKTISSSLAVVDLIDAIQPGCINYDLVKSGNLTEDDKHNNAKYAVSMARRIGARVYALPEDLVEVKPKMVMTVFACLMGRGMKRV
notes: plastin 3 (PLS3, T-plastin), human; recombinant wild type, parent of the OI mutants; Modified pColdI vector with a TEV protease site after the 6xHis tag; also called T-plastin; WT PLS3; source: E. coli BL21-CodonPlus(DE3), purified (TALON cobalt resin)
Turning to B2, in assay [1], the “F-actin bundling, low-speed … [PLS3]50%, Ca^2+” value was 2.97 µmol/L and the “F-actin bundling, low-speed … [PLS3]50%, EGTA” value was determined as 0.49 µmol/L. This molecule returned a Kd in assay [2] of 7.41 µM.

B3: plastin 3 (PLS3) N446S (natural protein)
chain: B2 chain with N446S
notes: plastin 3 (PLS3), human, osteogenesis imperfecta-linked missense mutation N446S in a proline-rich loop of CH3; Patient mutation; also called Ca2+-hypersensitive mutant; source: E. coli BL21-CodonPlus(DE3), purified (TALON cobalt resin)
With B3, in assay [1], the “F-actin bundling, low-speed … [PLS3]50%, Ca^2+” value was found to be 6.36 µmol/L and the “F-actin bundling, low-speed … [PLS3]50%, EGTA” value turned out to be 0.58 µmol/L. In assay [2], this molecule had a Kd of 4.79 µM.

B4: plastin 3 (PLS3) L478P (natural protein)
chain: B2 chain with L478P
notes: plastin 3 (PLS3), human, osteogenesis imperfecta-linked missense mutation L478P in CH3 of ABD2; Patient mutation; also called bundling-deficient mutant; source: E. coli BL21-CodonPlus(DE3), purified (TALON cobalt resin)
Molecule B4 came in with a Kd in assay [2] of 2.16 µM.

B5: plastin 3 (PLS3) A368D (natural protein)
chain: B2 chain with A368D
notes: plastin 3 (PLS3), human, osteogenesis imperfecta-linked missense mutation A368D in CH2 of ABD1; Patient mutation; also called Ca2+-insensitive mutant; Ca2+-hyposensitive mutant; source: E. coli BL21-CodonPlus(DE3), purified (TALON cobalt resin)
Consider B5, for which, in assay [1], the “F-actin bundling, low-speed … [PLS3]50%, Ca^2+” value amounted to 0.59 µmol/L and the “F-actin bundling, low-speed … [PLS3]50%, EGTA” value was determined as 0.47 µmol/L. In assay [2], this molecule came in with a dissociation constant Kd of 4.22 µM.

B6: plastin 3 (PLS3) E249_A250insIMGHSHSGSCLL (natural protein)
chain: MDEMATTQISKDELDELKEAFAKVDLNSNGFICDYELHELFKEANMPLPGYKVREIIQKLMLDGDRNKDGKISFDEFVYIFQEVKSSDIAKTFRKAINRKEGICALGGTSELSSEGTQHSYSEEEKYAFVNWINKALENDPDCRHVIPMNPNTDDLFKAVGDGIVLCKMINLSVPDTIDERAINKKKLTPFIIQENLNLALNSASAIGCHVVNIGAEDLRAGKPHLVLGLLWQIIKIGLFADIELSRNEIMGHSHSGSCLLALAALLRDGETLEELMKLSPEELLLRWANFHLENSGWQKINNFSADIKDSKAYFHLLNQIAPKGQKEGEPRIDINMSGFNETDDLKRAESMLQQADKLGCRQFVTPADVVSGNPKLNLAFVANLFNKYPALTKPENQDIDWTLLEGETREERTFRNWMNSLGVNPHVNHLYADLQDALVILQLYERIKVPVDWSKVNKPPYPKLGANMKKLENCNYAVELGKHPAKFSLVGIGGQDLNDGNQTLTLALVWQLMRRYTLNVLEDLGDGQKANDDIIVNWVNRTLSEAGKSTSIQSFKDKTISSSLAVVDLIDAIQPGCINYDLVKSGNLTEDDKHNNAKYAVSMARRIGARVYALPEDLVEVKPKMVMTVFACLMGRGMKRV
notes: Patient mutation; also called E249_A250insI-L; Ca2+-insensitive mutant; source: E. coli BL21-CodonPlus(DE3), purified (TALON cobalt resin)
In the case of B6, in assay [1], the “F-actin bundling, low-speed … [PLS3]50%, Ca^2+” value came out at 0.03 µmol/L and the “F-actin bundling, low-speed … [PLS3]50%, EGTA” value worked out at 0.1 µmol/L. The molecule further had a Kd in assay [2] of 2.56 µM.

Source of the values: paper PMC7244493, “Osteogenesis imperfecta mutations in plastin 3 lead to impaired calcium regulation of actin bundling” (Bone Research, 2020).
